Assay results from US12241094B2, “Phenazine degrading agents and related compositions, methods and systems for interfering with viability of bacteria” (priority 2016, dated 2025).
Entries after “also recorded” stand apart in the source; their conditions may differ.

How the values were obtained:
[1] = system: Pa PA14 biofilm transcriptome; assay: RNASeq transcriptome of biofilm cultures; type: cell-based, P. aeruginosa; conditions: 5 h
Protocol: Because 1-OH-PHZ induces iron starvation in A. fumigatus (Briard et al. (2015) Scientific Reports. 2015; 5), it was speculated that the abrogation of biofilm development in P. aeruginosa grown in the presence of either PodA or 1-OH-PHZox may be mediated by a response to Fe-limitation. To test this idea, changes to the transcriptome of Pa PA14 by RNASeq were assessed. After 5 h of incubation in the presence of PodA (1 μM), 1-OH-PHZ (200 μM) or PYO (200 μM), RNA was prepared from 1 ml of biofilm cultures (250 μl pooled from 4 static biofilm chambers) for analysis on an Illumina HiSeq 2500 sequencer at the Millard and Muriel Jacobs Genetics and Genomics Laboratory, as previously described (Babin et al. (2016) Proc Natl Acad Sci USA. 113(5):E597-E605; Kreamer et al. (2015) M Bio. 2015; 6(2):e02549. Epub 2015/02/26). This experiment was designed to identify genes that were likely to be specifically affected by PodA's transformation of PYO to 1-OH-PHZ under a condition that inhibited biofilm formation (FIG. 20A). As a reference for genes responsive to iron availability, these transcriptomes were compared to those previously found to respond to Fe(II) shock (Kreamer et al. (2015) M Bio. 2015; 6(2):e02549. Epub 2015/02/26).

[2] = system: P. aeruginosa PA14 biofilms; assay: Biofilm formation, surface coverage (chambered coverglass, DAPI); type: cell-based; conditions: for biofilm surface coverage: 5 hours
Protocol: Biofilm experiments. For all experiments involving inactivated PodA, either the E154A mutant or PodA30-162 that was subjected to a 1 hour treatment at 98° C. was used. To test the ability of PodA30-162 to degrade PYO in the presence of DNA, genomic DNA (gDNA) from P. aeruginosa PA14 was used in modified versions of previously described assays (59). For experiments using DNA pellets, 0.5 mg of gDNA was pelleted in the presence of 300 mM sodium acetate, pH 5.2 and 70% ethanol. Pellets were washed with 70% ethanol and dried. 200 μL of 800 μM PYO was added to the gDNA pellet without mixing and left to sit at room temperature for 6 hours to allow for diffusion of PYO into the gDNA pellet. The pellet was washed once with 70% EtOH, and submerged in a solution containing 10 mM Tris, pH 7.0 and 40% isopropanol. The pellet remained blue, consistent with an association of PYO with DNA. PodA30-162 was added to the isopropanol solution to a final concentration of 2 μg mL^−1 and left to sit for 3 hours to allow for the reaction to proceed. Tubes were imaged before and after PodA30-162 treatment. For experiments using solubilized gDNA, a 400 μg mL^−1 solution of gDNA was mixed with PYO and allowed to equilibrate for 6 hours. The PYO gDNA mixture was amended with 1 μg mL^−1 PodA30-162 and loss of PYO was monitored on a BioTek Synergy 4 microplate reader (BioTek) plate reader at 690 nm. Standards were included to quantify PYO loss over time. To assess biofilm formation in the presence of PodA30-162, biofilms were grown in Nunc Lab-Tek chambered coverglass slides (8-well, 0.8 cm^2 area, supplier #155411) using a modified protocol (22). PA14 was inoculated into succinate minimal medium and grown overnight to stationary phase. Cells were resuspended in fresh medium and diluted to a starting OD500 of 0.5 in succinate minimal medium. PodA30-162 (2 μg mL^−1, final concentration) or DNase (20 μg mL^−1) (22) was added and 250 μL was added to each well of the 8-well chambered coverglass. Cultures were grown for 5 hours at 37° C. and 100 rpm (Innova 44 shaking incubator, New Brunswick) in a humidified chamber. After incubation, liquid was removed from each well by drawing with a pipet tip placed in the corner of each well and chambers were washed twice with 400 μL of biofilm wash (Tris buffer, pH 7.6 and 100 mM NaCl) to remove planktonic and loosely bound cells. Attached biomass was stained by adding 450 μL biofilm wash containing 10 μg mL^−1 DAPI (4′,6-diamidino-2-phenylindole) (Santa Cruz Biotechnology). Surface associated biomass was imaged on a Leica TCS SPE confocal microscope with a ACS APO 40×/1.15 oil immersion objective. A 405 nm solid-state laser was used for excitation, and data was collected from 420-500 nm. […]

B1: PodA30-162: truncated pyocyanin demethylase encoded by MFORT_14352 of Mycobacterium fortuitum lacking N-terminal helix, SEQ ID NO: 2 (protein, listed as Mycobacterium fortuitum)
chain: MDGRGGRSTTEPVTMTLDVKNDQVAKHDFGKPGMDVGDMDIFSDILSVDGKQVGYDGGACFFTNVTPDNPMTYCELTIHLDAGEIFARSLTPHTLAPFTMAITGGTGEYANSKGELTVSGVATPDEKYELKLTKAENLYFQ
expression of small gene cluster incl. QapR regulon [1]: upregulated modestly | log(2) changes relative to untreated control, metal scavenging and starvation response genes (FIG. 21A) ([1]; PodA 1 μM, 1-OH-PHZ 200 μM, PYO 200 μM): ~0 log(2) | biofilm surface coverage ([2]; PodA30-162 2 μg mL^−1, DNase 20 μg mL^−1, vs. PodA-inactive): reduced; also recorded: lower | biofilm surface coverage ([2]; representative images, 82.7 percent in the absence of PodA30-162): 43.5% | phenazines in biofilm supernatants by HPLC ([2]; after 5 hours of growth): conversion of PYO to 1-OH-PHZ
